Experimental data from the nanobody polyreactivity screen of Harvey et al. (2022).

assay: yeast display, Sf9 membrane polyspecificity reagent, FACS + sequencing; frameworks hold sequencing errors
How it was run: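 Nanobodies came from a synthetic yeast display library in Saccharomyces cerevisiae BJ5465, induced with galactose for 36–48 hours and stained for 1 hour at 4 °C with 10% biotinylated, detergent-solubilized Sf9 membrane reagent. Cells were enriched on streptavidin microbeads and then FACS-sorted, with low and high (top ~1%) gates set on anti-HA fluorescence for expression and streptavidin fluorescence for reagent binding. Each polyreactivity label reflects the gate a clone came from. Genes were amplified by colony PCR, sequenced by MiSeq 2 × 250 and filtered by CDR length.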

Sequence	polyreactivity (PSR sort gate)
QVQLVESGGGLVQAGGSLRLSCAASGSILARYAMGWYRPAPGKERELVAAISSRGGSTYYADSVKGRFTISRDNAKNTVYLEINSLKPEDTAVYSCAAYVYLQVEYDYWGHGTQVTVSS	low polyreactivity
QVQLVESGGGLVQAGGSLRLSCAASGSILAYNAMGWYRQAPGKERELVAAISWTGRTYYADSVKGRFTISRDNAKNTVYLQMNSLKPEDTAVYYCNARGRQRSRGSQIYDYWGQGSQVTVSS	high polyreactivity
QVQLVESGGGLVQAGGSLRLSCAASGSILDGYAMGWYIQAPGKARELVAAITTGGGSTYYADSVKGRFTISRDNAKNTVYLQMNSLKPEDTAVYYCAAYRKPGSWTWWVRGYGYWVQGTQVTVSS	low polyreactivity
QVQLVESGGGLVQAGGSLRLSCAASGSILDRYVMGWYRQAPGNGRELVSAITWSGSRTYYADSVKGRFTISRDNAKNTVYLQMNSLKPEDTAVYYCAKVIRRSSTLGNHYYWGQGTQVTVSS	high polyreactivity
QVQLVESGGGLVQAGGSLRLSCAASGSILEGNAMGWYRQAPGKERELVASISGDGSTNYADSVKGRFTISRDNAKNTVYLQMNSLKPEDTAVYYCAARYGRIHWKANWPEYGYWGQGTQVTVSS	low polyreactivity
QVQLVESGGGLVQAGGSLRLSCAASGSILFLNAMGWYSQAPGKERELVASITDSGGGTYYADSVKGRFTISRDNAKNTVYLQMNSLKPEDTAVYYCNARSRRPDDYWGQGTQVTVSS	low polyreactivity
QVQLVESGGGLVQAGGSLRLSCAASGSILFNNAMGWYRQAPGKEWELVAAMGANGGNTYYADSVKGRFTISCDNATNTVYLQMTSLKPEDTAVYYCSADKTLYGGGAWTRWFHYTYGYWGQGTQVTVSS	high polyreactivity
QVQLVESGGGLVQAGGSLRLSCAASGSILFRYGMGWYRQAPGKERELVAAINSGGSTYADSVKGRFTISRDNAKNTVYLQMNSLKPEDTAVYYCAKVAWQAHGGPGEFDYWGQGTQVTVSS	low polyreactivity
QVQLVESGGGLVQAGGSLRLSCAASGSILFYNAMGWYRQAPGKERELVAAISSGGSTYYADSVKGRFTISRDNAKNTVYLQMNSLKPEDTAVYNCAARRRYSSVYYYYTTRRGYWGQGTQVTVSS	high polyreactivity
QVQLVESGGGLVQAGGSLRLSCAASGSILGGNAMGWYRQAPGKERELVAAITFSGGGTYYADSVKGRFTISRDNGKNTVYLQMNSLKPEDTALYNCAADKDGYTYEFDYWGQGTQVTVSS	low polyreactivity
QVQLVESGGGLVQAGGSLRLSCAASGSILGGNAMGWYRQAPGKEWELVAAITFSGGGTYYADSVKGRFTSSRDNAKNTVYLQMNSLKPEDTAVYYCAADKDGYTYEFDYWGQGTQVTVSS	low polyreactivity
QVQLVESGGGLVQAGGSLRLSCAASGSILGHYAMGWYRQAPGKERELVAAISWSGGSTYYADSVKGRFTISRDNAKNTVYLQMNSLKPEDTAVYYCNAYLSPKQPLSPPDPTFEGGYWGQGTQVTVSS	low polyreactivity
QVQLVESGGGLVQAGGSLRLSCAASGSILGRYAMGWYRQAPGKERELVAAITSSGGRTYYADSVKGRFTISRDNAKNSVYLQMNSLKPEDTAVYYCAARYGRRLVWVPALLYDYWGQGTQVTVSS	high polyreactivity
QVQLVESGGGLVQAGGSLRLSCAASGSILGTYAMGWYRQAPGKERDLVAAISSSGRTSYADSVKGRFTISRDNAKNTVYLQMNSLKPEDTAVYFCNKVTSYYVFYTPYYSWGQGTQVTVSS	low polyreactivity
QVQLVESGGGLVQAGGSLRLSCAASGSILGTYAMGWYRQAPGKERELVAAISASGRTSYADSEKGRFTISRDNAKNTVYLQMNSLKPEDTAVYDCNASNYFVLINDPDAAPWLYDYWGHGTQVTVSS	low polyreactivity
QVQLVESGGGLVQAGGSLRLSCAASGSILGYYAMGWYRQAPGKERELVAAISWSGGRTYYADSVKGRFTISRDNAKNTVYLQMNSLKPEDTAVYYCNARWRSGPRAYDYWGQGTQVTVSS	high polyreactivity
QVQLVESGGGLVQAGGSLRLSCAASGSILGYYAMGWYRQAPGKERELVAAITASGGSTYYADSVKGRFTISRDNAKNTVYLQMNSLKPEDTAVYYCNADGGPGYPRAYDYWGQGTQVTVSS	low polyreactivity
QVQLVESGGGLVQAGGSLRLSCAASGSILGYYAMGWYRQAPGKERELVAAITWRGGRTYYADSVKGRFTISRDNAMNTVYLQMNSLKPEDTAVYYCAKVPSGYKGYDYWGQGTQVTVSS	high polyreactivity
QVQLVESGGGLVQAGGSLRLSCAASGSILKGYAMGWYRQAPGKERELVAAISGSGGSTHYADSVKGRFTISRDNAKNTVYLQMNSLKPEDTAVYYCAAAYKWTYYWGQGTQVTVSS	high polyreactivity
QVQLVESGGGLVQAGGSLRLSCAASGSILKYYAMGWYRQAPGKERELVAAISSGGSTYYADSVKGRFTISRDNAKNTVYLQMNSLKPEDTAVYYCAAAWYGAKYIVLYDYWGQGTQVTVSS	low polyreactivity
QVQLVESGGGLVQAGGSLRLSCAASGSILLDNAMGWSRQAPGKERELVAAISLSGGGSTYYADSVKGRFTISRDNAKNTVYLQMNSLKPEATAVYYCAAASTYPLPYDYWGQGTQVTVSS	low polyreactivity
QVQLVESGGGLVQAGGSLRLSCAASGSILLPYAMGRYRHAPGKERELVAAITYRGASTHYAASVKGRFTISRDNAKNTVYLQMNSLKQEDPAVYYCAARGWVYYASEMDYWGQGTQGTVSS	low polyreactivity

Sequence	polyreactivity (PSR sort gate)
QVQLVESGGGLVQAGGSLRLSCAASGSILLRNTMGWYRQAPGKERELVAAISWRGGSTYYADSVKGRFTISRDNAKNTVYLQMNSLKPEDTAVYYCAARWVASHKGGYWGQGTQVTVSS	high polyreactivity
QVQLVESGGGLVQAGGSLRLSCAASGSILNRYAMGWYRQAPGKERELVAAISRRSGSTYYADSVKGRFTISRDNAKNTVYLQMNSLKPEDTAVYYCAATSSLGDFRYDYWGQGTQVTVSS	high polyreactivity
QVQLVESGGGLVQAGGSLRLSCAASGSILNSYAMGWYRQAPGKERELVATITSGSRTNYADSVKGRFTISRDNAKNTVYLQMNSLKPEDTAVYYCATEYQRRHYIGHNYWGQGTQVTVSS	low polyreactivity
QVQLVESGGGLVQAGGSLRLSCAASGSILPYYAMGWYRPAPGKERELVATITDGTDTYYADSVKGRFTISRDNAKNTVYLQMTSLKPEDTAVYYCARKQYWGYDYWGQGTQVTVSS	low polyreactivity
QVQLVESGGGLVQAGGSLRLSCAASGSILQPNAMGWYRQAPGKERELVAAISWSGDNTYYADSVKGRFTISRDNAKNTVYLQMNSLKPEDTAVYYCATDADIYFQEYDYWGQGTQVTVSS	low polyreactivity
QVQLVESGGGLVQAGGSLRLSCAASGSILQRYAMGWYRQAPGKERELVAAISTSGSSTYYADSVKGRFTISRDNAKNTVYLQMNSLKPEDTAVYYCAAKSRKFDYWGQGTQVTVSS	high polyreactivity
QVQLVESGGGLVQAGGSLRLSCAASGSILQTNVMGWYRQAPGKEREFVAAIRWSTVSTYYADSVKGRFTISRDNAKNTVYLQMKSLKPEDTAVYYCASAKSWYSYKMDYWGQGTQVTVSS	low polyreactivity
QVQLVESGGGLVQAGGSLRLSCAASGSILQYYAMGWYRQTPGKERELVAAITSGGSTYYADSVKGRFTISRDNAKNTVYLQMNSLKPEDTAVYYCAKVYRRAQYDYCGQGTQVTVSS	low polyreactivity
QVQLVESGGGLVQAGGSLRLSCAASGSILRLYVMGWYRQAPGKERELVADISDRGGSTYYADSVKGRFTISRDNAKNTVYLQLNSLKPEDTAVYYCDKDSETAGATYTEYDYWGQGTQVTVSS	low polyreactivity
QVQLVESGGGLVQAGGSLRLSCAASGSILRSNAMGWYRQAPGKERELVATITNSGGSTYADSVKGCFTISRDNANNTVYLQMNSLKPEDTAVYYCAKAGAGESIAKYDYWGQGTQVTVSS	low polyreactivity
QVQLVESGGGLVQAGGSLRLSCAASGSILSDNAMGWYRQAPGKERELVASIRSGDITKYADSVKGRFTFSRDNAKNTVYLQMNSLKPEDTAVYYCASAGRVLYTRKYYGWRYLNDYWGQGTQVTVSS	low polyreactivity
QVQLVESGGGLVQAGGSLRLSCAASGSILSFYAMGWYRQAPGKERELVATISRRGGSTYYADSVKGRFTISRDNAKNTVYLQMNSLKPEDTAVYYCNKPGLSAWTQSSQYEYDYWGQGTQVTVSS	high polyreactivity
QVQLVESGGGLVQAGGSLRLSCAASGSILSRYAMGWYRQAPGKERELVAAISSRGGSTYYADSVKGRFTISRDNAKNTVYLQMNSLKPEDTAVYYCAADPVGEVRVYARGYSWGQGTQVTVSS	high polyreactivity
QVQLVESGGGLVQAGGSLRLSCAASGSILSVNAMGWYRQAPGKERELVAAINWSGGSTYYADSVKGRFTISRDNAKNTVYLQMNSLKPEDTAVYYCAARWRYSYVGDFDYWGQGTQVTVSS	high polyreactivity
QVQLVESGGGLVQAGGSLRLSCAASGSILSYYAMGWYRQAPGKERELVAAISKTGGSTYYADSVKGRFTISRDNANNTVYLHMNSLKPEVTAVYYCAAVDNIGRYEYWGQGTQVTVSS	high polyreactivity
QVQLVESGGGLVQAGGSLRLSCAASGSILTGNAMGWYRPAPGKERELVAAISAGGTRTYYADSVKGRFTISRDNAKNTVYLQMNSLKPEDTAVYYCAADSSKRIGYDYWGQGTQVTVSS	high polyreactivity
QVQLVESGGGLVQAGGSLRLSCAASGSILTLYSMGWYRQAPGKERELVAAISSTGGRTYYADSVKGRFTISRDNAKNTVYVQMNSLKPEDTAFYYCAARGWGGLRSYGYYYWGQGTQVTVSS	high polyreactivity
QVQLVESGGGLVQAGGSLRLSCAASGSILVEYAMGWYRQAPGKERELVAAISSNGGSTYYADSVKGRFTISRDNAKNTVYLQMNSLKPEDTAVYYCATRQSWSDYYLNVDYDYWGQGTKVTVSS	low polyreactivity
QVQLVESGGGLVQAGGSLRLSCAASGSILVSYAMGWYRPAPGKERELVAAITSGGRTKYADSVKGRFTISRDNAKNTVYLQMNSLKPEDTAVYYCAADDPLSYQFDYWGQGTQVTVSS	high polyreactivity
QVQLVESGGGLVQAGGSLRLSCAASGSILYRYAMGWSRPAPGKERELDAAISYNGGRTYYADSVKGRFSISRDNAKNTVYLQMNSLKPEDTAVYYCNAAGRDDAYDYWGQGTQVTVSS	high polyreactivity
QVQLVESGGGLVQAGGSLRLSCAASGSILYRYAMGWYRQAPGKERELVAGISKTGSSTYYADSVKGRFTISRDNAKNTVYLQMNSLKPEDTAVYYCNVRHGYSGKDYRYDYWGQGTQVTVSS	low polyreactivity
